Experimental data: PMC4072508, “Genome-Wide Prediction and Validation of Peptides That Bind Human Prosurvival Bcl-2 Proteins” (PLoS Computational Biology, 2014)

T1: Bfl-1, Q16548
T1 chain: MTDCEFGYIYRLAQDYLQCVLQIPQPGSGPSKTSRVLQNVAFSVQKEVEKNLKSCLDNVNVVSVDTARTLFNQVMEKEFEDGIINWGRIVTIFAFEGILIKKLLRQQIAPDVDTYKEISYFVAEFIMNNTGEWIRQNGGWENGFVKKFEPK

T2: Mcl-1, Q07820
T2 chain: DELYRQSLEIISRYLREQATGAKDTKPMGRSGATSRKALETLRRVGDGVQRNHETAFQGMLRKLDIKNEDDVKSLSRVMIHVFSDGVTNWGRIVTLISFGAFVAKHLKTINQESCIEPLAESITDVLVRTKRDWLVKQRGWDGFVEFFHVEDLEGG


Legend:
Test in all cases: peptide SPOT array, c-Myc-tagged receptor at 1 uM or 100 nM, anti-c-Myc-Cy3
Bcl-xL, Q07817 = biological target: Bcl-xL, Q07817
Bfl-1, Q16548 = biological target: T1, Bfl-1, Q16548
Mcl-1, Q07820 = biological target: T2, Mcl-1, Q07820

Bcl-xL, Q07817, sequence (Q07817 1-209): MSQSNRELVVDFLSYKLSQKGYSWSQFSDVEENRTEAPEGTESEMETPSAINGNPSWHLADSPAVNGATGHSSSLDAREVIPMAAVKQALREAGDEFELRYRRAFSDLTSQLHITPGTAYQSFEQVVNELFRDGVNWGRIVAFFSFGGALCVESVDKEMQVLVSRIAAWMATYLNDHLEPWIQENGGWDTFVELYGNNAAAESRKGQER

Binder | SPOT signal as a fraction of Bim BH3's signal on the same receptor and array (Bcl-xL, Q07817) | SPOT signal as a fraction of Bim BH3's signal on the same receptor and array (Bfl-1, Q16548) | SPOT signal as a fraction of Bim BH3's signal on the same receptor and array (Mcl-1, Q07820)
APGEEDLCAAFNVILDNVGKDWRRLA [FADD] | 0.06 | 0.04 | 0.06
VLELHPGAQRDHIGCDEVYYLGEGEA [HEXDC] | 0.05 | 0.04 | 0.04
SQEPLEKAQLLALVGDQLIQSHHYAA [MCF2L2] | 0.06 | 0.04 | 0.04
MEMYQPSAVVLQCGLDSLSGDRLGCF [HDAC2] | 0.06 | 0.03 | 0.04
SKEVAILCSFDLGLGDSCFNTQLLSI [MFSD11] | 0.08 | 0.03 | 0.04
NNNMDVESRTMATMGDTLASRGLLDA [SEC16A] | 0.04 | 0.06 | 0.03
CHGLRELALNYHLLLDELLLALSSEK [FBXL3] | 0.07 | 0.04 | 0.06
MPYMEAVIHEIQRFGDVIPMSLARRV [CYP2A6] | 0.15 | 0.1 | 0.1
SEIMHSFAKCDEVMGDGCLNNEHFEE [IPO5] | 0.09 | 0.03 | 0.04
PKKKMTLSEIDQWICDNFPYYREAGS [FOXJ3] | 0.08 | 0.06 | 0.1
VLAPVQLGKWLVLFCDEINLPDMDKY [DYNC1H1] | 0.36 | 0.08 | 0.05
LWAAQRYGRELRRMLDEFVDSFKKGL [BAD] | 0.49 | 0.42 | 0.41
PALLVHWAKCLQKMLRGLNSSYDQQE [RGPD2] | 0.55 | 0.39 | 0.45
VHKHSRLAEVLQLGSDILPQYKQEAP [KCNH1] | 0.17 | 0.09 | 0.21
SWFIQSLCAMDKQYADKLEFMHILTR [CASP3] | 0.08 | 0.05 | 0.06
LLDFFMVSILFSKLGDLLHKLQFVLT [PCNXL2] | 0.11 | 0.06 | 0.09
PAKKMTLSEIYRWILDNFPYYKNAGI [FOXJ2] | 0.82 | 0.45 | 0.42

Other lines, results leading:

SPOT signal as a fraction of Bim BH3's signal on the same receptor and array (Bcl-xL, Q07817) | SPOT signal as a fraction of Bim BH3's signal on the same receptor and array (Bfl-1, Q16548) | SPOT signal as a fraction of Bim BH3's signal on the same receptor and array (Mcl-1, Q07820) | Binder
0.86 | 0.57 | 0.63 | TAGLRPGARLLRVCLQTLPSLRPEAA [SIPA1]
0.06 | 0.04 | 0.05 | MSLFLRVVFSDTMFGDLFEEEYSTVS [USP40]
0.67 | 0.53 | 0.52 | PYLSKHRADRMRRLLDFLNQESFDLA [SMPD2]
0.05 | 0.05 | 0.05 | LNLLMISVAFLRVIGDQLEKLCDSLL [SLC38A8]
1.03 | 0.68 | 0.69 | ISSYMVLAPVDGYLGDRYNRKYLMCG [SPNS1]
0.06 | 0.04 | 0.05 | DSLLWKLAGLLRESGDVVLSGCSTLS [STK11IP]
0.06 | 0.03 | 0.05 | LSIIYTLVEIFQNILDTNLADFTAGL [SLC26A4]
0.09 | 0.09 | 0.06 | SFLSAHCASHLAWFGDSLTSLSQRLQ [TMEM214]
